Laboratory results: patent US20260097098A1

Target: human VEGF165 (non-biotinylated) (human) (UniProt P15692)
Experiment: cell-based or functional assay

Chain of human VEGF165 (non-biotinylated) (human) (P15692 other isoform, or with tags, fused parts or gaps): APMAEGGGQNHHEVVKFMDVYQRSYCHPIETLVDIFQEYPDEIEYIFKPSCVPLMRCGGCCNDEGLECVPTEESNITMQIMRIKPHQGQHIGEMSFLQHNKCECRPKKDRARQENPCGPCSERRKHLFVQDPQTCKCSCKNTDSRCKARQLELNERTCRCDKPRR

maximal inhibition of VEGF-stimulated proliferation: < 80%
Substance: EYLEA (aflibercept) (Fc fusion)
